Consider 55 variants from the Human Domainome abundance scans (Beltran et al. 2025).

± gives the uncertainty stated by the source.

Sequences and labels used below:
B1: Histone-lysine N-methyltransferase 2A, residues 1148 to 1194; numbered along this chain, Q03164 (parent)
chain: KGRRSRRCGQCPGCQVPEDCGVCTNCLDKPKFGGRNIKKQCCKMRKC

The variants in this data set derive from B1. The data set is described as follows: abundance fitness (aPCA) (normalised: wild type 0, dead -1); higher = more abundant; growth selection in yeast, the domain comes from the species named. The following applies: Homo sapiens.
Turning to KGRRSRRCGQCPGCQWPEDCGVCTNCLDKPKFGGRNIKKQCCKMRKC [V16W], the abundance fitness is -0.285 ± 0.11.

In the case of KGRRSRRCGQCPGCQYPEDCGVCTNCLDKPKFGGRNIKKQCCKMRKC [V16Y], the abundance fitness is -0.178 ± 0.17.

As for KGRRSRRCGQCPGCQVPRDCGVCTNCLDKPKFGGRNIKKQCCKMRKC [E18R], the abundance fitness is -0.049 ± 0.097.

Consider KGRRSRRCGQCPGCQVPTDCGVCTNCLDKPKFGGRNIKKQCCKMRKC [E18T], for which the abundance fitness is -0.164 ± 0.11.

In the case of KGRRSRRCGQCPGCQVPHDCGVCTNCLDKPKFGGRNIKKQCCKMRKC [E18H], the abundance fitness was -0.17 ± 0.15.

Regarding KGRRSRRCGQCPGCQVPCDCGVCTNCLDKPKFGGRNIKKQCCKMRKC [E18C], the abundance fitness is -0.485 ± 0.14.

Regarding KGRRSRRCGQCPGCQVPGDCGVCTNCLDKPKFGGRNIKKQCCKMRKC [E18G], the abundance fitness is -0.469 ± 0.097.

KGRRSRRCGQCPGCQVPDDCGVCTNCLDKPKFGGRNIKKQCCKMRKC [E18D]: the abundance fitness was -0.182 ± 0.15.

KGRRSRRCGQCPGCQVPYDCGVCTNCLDKPKFGGRNIKKQCCKMRKC [E18Y]: the abundance fitness is -0.264 ± 0.15.

Turning to KGRRSRRCGQCPGCQVPSDCGVCTNCLDKPKFGGRNIKKQCCKMRKC [E18S], the abundance fitness is -0.092 ± 0.09.

For the variant KGRRSRRCGQCPGCQVPNDCGVCTNCLDKPKFGGRNIKKQCCKMRKC [E18N], the abundance fitness is -0.161 ± 0.17.

Consider KGRRSRRCGQCPGCQVPADCGVCTNCLDKPKFGGRNIKKQCCKMRKC [E18A], for which the abundance fitness is -0.089 ± 0.1.

As to KGRRSRRCGQCPGCQVPIDCGVCTNCLDKPKFGGRNIKKQCCKMRKC [E18I], the abundance fitness is -0.364 ± 0.14.

On to KGRRSRRCGQCPGCQVPVDCGVCTNCLDKPKFGGRNIKKQCCKMRKC [E18V], for which the abundance fitness was -0.093 ± 0.091.

For KGRRSRRCGQCPGCQVPWDCGVCTNCLDKPKFGGRNIKKQCCKMRKC [E18W], the abundance fitness is -0.1 ± 0.12.

KGRRSRRCGQCPGCQVPLDCGVCTNCLDKPKFGGRNIKKQCCKMRKC [E18L]: the abundance fitness was -0.213 ± 0.086.

Regarding KGRRSRRCGQCPGCQVPMDCGVCTNCLDKPKFGGRNIKKQCCKMRKC [E18M], the abundance fitness is -0.22 ± 0.14.

For the variant KGRRSRRCGQCPGCQVPQDCGVCTNCLDKPKFGGRNIKKQCCKMRKC [E18Q], the abundance fitness was -0.177 ± 0.12.

Consider KGRRSRRCGQCPGCQVPPDCGVCTNCLDKPKFGGRNIKKQCCKMRKC [E18P], for which the abundance fitness is -0.495 ± 0.14.

KGRRSRRCGQCPGCQVPKDCGVCTNCLDKPKFGGRNIKKQCCKMRKC [E18K]: the abundance fitness is -0.002 ± 0.14.

For the variant KGRRSRRCGQCPGCQVWEDCGVCTNCLDKPKFGGRNIKKQCCKMRKC [P17W], the abundance fitness was -0.215 ± 0.094.

On to KGRRSRRCGQCPGCQVEEDCGVCTNCLDKPKFGGRNIKKQCCKMRKC [P17E], for which the abundance fitness came out at 0.074 ± 0.11.

Turning to KGRRSRRCGQCPGCQVTEDCGVCTNCLDKPKFGGRNIKKQCCKMRKC [P17T], the abundance fitness is 0.161 ± 0.12.

With KGRRSRRCGQCPGCQVGEDCGVCTNCLDKPKFGGRNIKKQCCKMRKC [P17G], the abundance fitness is -0.082 ± 0.084.

For the variant KGRRSRRCGQCPGCQVQEDCGVCTNCLDKPKFGGRNIKKQCCKMRKC [P17Q], the abundance fitness is -0.159 ± 0.11.

For KGRRSRRCGQCPGCQVMEDCGVCTNCLDKPKFGGRNIKKQCCKMRKC [P17M], the abundance fitness was -0.241 ± 0.13.

Turning to KGRRSRRCGQCPGCQVLEDCGVCTNCLDKPKFGGRNIKKQCCKMRKC [P17L], the abundance fitness is -0.06 ± 0.091.

Consider KGRRSRRCGQCPGCQVCEDCGVCTNCLDKPKFGGRNIKKQCCKMRKC [P17C], for which the abundance fitness was -0.367 ± 0.12.

With KGRRSRRCGQCPGCQVSEDCGVCTNCLDKPKFGGRNIKKQCCKMRKC [P17S], the abundance fitness came to 0.026 ± 0.091.

As for KGRRSRRCGQCPGCQVAEDCGVCTNCLDKPKFGGRNIKKQCCKMRKC [P17A], the abundance fitness is -0.058 ± 0.096.

Regarding KGRRSRRCGQCPGCQVNEDCGVCTNCLDKPKFGGRNIKKQCCKMRKC [P17N], the abundance fitness was -0.313 ± 0.23.

Turning to KGRRSRRCGQCPGCQVVEDCGVCTNCLDKPKFGGRNIKKQCCKMRKC [P17V], the abundance fitness is -0.057 ± 0.087.

On to KGRRSRRCGQCPGCQVDEDCGVCTNCLDKPKFGGRNIKKQCCKMRKC [P17D], for which the abundance fitness was -0.615 ± 0.2.

On to KGRRSRRCGQCPGCQVKEDCGVCTNCLDKPKFGGRNIKKQCCKMRKC [P17K], for which the abundance fitness is 0.095 ± 0.12.

Turning to KGRRSRRCGQCPGCQVYEDCGVCTNCLDKPKFGGRNIKKQCCKMRKC [P17Y], the abundance fitness is -0.485 ± 0.16.

KGRRSRRCGQCPGCQVFEDCGVCTNCLDKPKFGGRNIKKQCCKMRKC [P17F]: the abundance fitness was -0.123 ± 0.11.

Turning to KGRRSRRCGQCPGCQVIEDCGVCTNCLDKPKFGGRNIKKQCCKMRKC [P17I], the abundance fitness was -0.358 ± 0.2.

Turning to KGRRSRRCGQCPGCQVPEDCGLCTNCLDKPKFGGRNIKKQCCKMRKC [V22L], the abundance fitness was -0.166 ± 0.081.

For the variant KGRRSRRCGQCPGCQVPEDCGYCTNCLDKPKFGGRNIKKQCCKMRKC [V22Y], the abundance fitness is -0.053 ± 0.1.

Turning to KGRRSRRCGQCPGCQVPEDCGSCTNCLDKPKFGGRNIKKQCCKMRKC [V22S], the abundance fitness is 0.061 ± 0.079.

KGRRSRRCGQCPGCQVPEDCGCCTNCLDKPKFGGRNIKKQCCKMRKC [V22C]: the abundance fitness is -0.311 ± 0.11.

With KGRRSRRCGQCPGCQVPEDCGGCTNCLDKPKFGGRNIKKQCCKMRKC [V22G], the abundance fitness was -0.319 ± 0.09.

For the variant KGRRSRRCGQCPGCQVPEDCGWCTNCLDKPKFGGRNIKKQCCKMRKC [V22W], the abundance fitness is -0.246 ± 0.12.

As to KGRRSRRCGQCPGCQVPEDCGKCTNCLDKPKFGGRNIKKQCCKMRKC [V22K], the abundance fitness was -0.079 ± 0.14.

KGRRSRRCGQCPGCQVPEDCGHCTNCLDKPKFGGRNIKKQCCKMRKC [V22H]: the abundance fitness is -0.046 ± 0.13.

Regarding KGRRSRRCGQCPGCQVPEDCGMCTNCLDKPKFGGRNIKKQCCKMRKC [V22M], the abundance fitness is -0.385 ± 0.11.

As for KGRRSRRCGQCPGCQVPEDCGQCTNCLDKPKFGGRNIKKQCCKMRKC [V22Q], the abundance fitness is 0.079 ± 0.15.

On to KGRRSRRCGQCPGCQVPEDCGFCTNCLDKPKFGGRNIKKQCCKMRKC [V22F], for which the abundance fitness is -0.009 ± 0.11.

On to KGRRSRRCGQCPGCQVPEDCGDCTNCLDKPKFGGRNIKKQCCKMRKC [V22D], for which the abundance fitness was -0.322 ± 0.14.

With KGRRSRRCGQCPGCQVPEDCGNCTNCLDKPKFGGRNIKKQCCKMRKC [V22N], the abundance fitness is -0.28 ± 0.12.

For the variant KGRRSRRCGQCPGCQVPEDCGECTNCLDKPKFGGRNIKKQCCKMRKC [V22E], the abundance fitness is -0.158 ± 0.14.

KGRRSRRCGQCPGCQVPEDCGRCTNCLDKPKFGGRNIKKQCCKMRKC [V22R]: the abundance fitness was -0.021 ± 0.083.

Regarding KGRRSRRCGQCPGCQVPEDCGPCTNCLDKPKFGGRNIKKQCCKMRKC [V22P], the abundance fitness was -0.769 ± 0.12.

As for KGRRSRRCGQCPGCQVPEDNGVCTNCLDKPKFGGRNIKKQCCKMRKC [C20N], the abundance fitness is -0.898 ± 0.23.

For the variant KGRRSRRCGQCPGCQVPEDWGVCTNCLDKPKFGGRNIKKQCCKMRKC [C20W], the abundance fitness was -0.95 ± 0.14.
